The values that follow come from patent publication US20230287082A1 (published 2023).

The chains are these.
B1: ΔB7-H6_S3#29-SEED-PGLALA (bispecific antibody, part only; not given: SEED Fc chains and hu225 EGFR Fab, part only)
chain, part: DLKVEMMAGGTQITPLNDNVTIFCNIFYSQPLNITVMGITWFWKSLTFDKEVKVFEFWGDHQEAFRPGAIVSPWRLKSGDASLRLPGIQLEEAGEYRCEVIVTPYKAQGTVQLEVVASPAS
B2: ΔB7-H6_S3#8-SEED-PGLALA (bispecific antibody, part only; not given: SEED Fc chains and hu225 EGFR Fab, part only)
chain, part: B1 chain, part with V36H, Y105L
B3: ΔB7-H6_S3#12-SEED-PGLALA (bispecific antibody, part only; not given: SEED Fc chains and hu225 Fab, part only)
chain, part: B1 chain, part with V36E, W58F, I101V
B4: ΔB7-H6_S3#19-SEED-PGLALA (bispecific antibody, part only; not given: SEED Fc chains and hu225 Fab, part only)
chain, part: B1 chain, part with V36Q, I101V
B5: ΔB7-H6_S3#1-SEED-PGLALA (bispecific antibody, part only; not given: SEED Fc chains and hu225 EGFR Fab, part only)
chain, part: B1 chain, part with V36T, I101V
B6: ΔB7-H6_S3#17-SEED-PGLALA (bispecific antibody, part only; not given: SEED Fc chains and hu225 EGFR Fab, part only)
chain, part: B1 chain, part with V36S, W58Y, I101F, Y105L
B7: ΔB7-H6_S3#9-SEED-PGLALA (bispecific antibody, part only; not given: SEED Fc chains and hu225 EGFR Fab, part only)
chain, part: B1 chain, part with V36H, W58F, I101V
B8: ΔB7-H6_S3#11-SEED-PGLALA (bispecific antibody, part only; not given: SEED Fc chains and hu225 Fab, part only)
chain, part: B1 chain, part with V36L, Y105F
B9: ΔB7-H6_S3#3-SEED-PGLALA (bispecific antibody, part only; not given: SEED Fc chains and hu225 Fab, part only)
chain, part: B1 chain, part with V36H, W58F, I101F
B10: ΔB7-H6_S3#21-SEED-PGLALA (bispecific antibody, part only; not given: SEED Fc chains and hu225 Fab, part only)
chain, part: B1 chain, part with V36L, I101V
B11: ΔB7-H6_S3#5-SEED-PGLALA (bispecific antibody, part only; not given: SEED Fc chains and hu225 Fab, part only)
chain, part: B1 chain, part with I101V
B12: ΔB7-H6_S3#10-SEED-PGLALA (bispecific antibody, part only; not given: SEED Fc chains and hu225 Fab, part only)
chain, part: B1 chain, part with V36S, W58Y, I101F
B13: ΔB7-H6_S3#6-SEED-PGLALA (bispecific antibody, part only; not given: SEED Fc chains and hu225 Fab, part only)
chain, part: B1 chain, part with V36H, I101V
B14: ΔB7-H6_S3#7-SEED-PGLALA (bispecific antibody, part only; not given: SEED Fc chains and hu225 Fab, part only)
chain, part: B1 chain, part with V36H, W58Y, I101V

Positions count from the first letter of the chain named.

Chain of NKp30 on human NK cells (human) (O14931 19-201): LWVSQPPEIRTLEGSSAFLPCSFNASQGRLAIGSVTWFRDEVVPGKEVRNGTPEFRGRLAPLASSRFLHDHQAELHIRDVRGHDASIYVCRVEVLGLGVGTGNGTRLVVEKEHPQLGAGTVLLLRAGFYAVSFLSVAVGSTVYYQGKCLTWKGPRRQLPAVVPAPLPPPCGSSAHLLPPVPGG
Chain of human NKp30 (human) (O14931 19-135 limits assumed): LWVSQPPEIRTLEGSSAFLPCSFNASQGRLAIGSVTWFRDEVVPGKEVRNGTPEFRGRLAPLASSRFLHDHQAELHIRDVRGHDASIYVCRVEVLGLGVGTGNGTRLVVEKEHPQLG

The first assay concerns the target NKp30 on human NK cells (human) (UniProt O14931). Put plainly: cell-based or functional assay.
In the case of B1, the A431 EC50 with PBMC (pM) worked out at 33.6 pM; the A549 EC50 with PBMC (pM) is 172 pM; the EC50 (pM), A431 lysis with PBMC was 7.6 pM; the EC50 improvement compared to ΔB7-H6 wt is 114 fold.
For B2, the EC50 (pM), A431 lysis with PBMC was determined as 43.7 pM and the EC50 improvement compared to ΔB7-H6 wt was 20 fold.
Regarding B3, the EC50 (pM), A431 lysis with PBMC was found to be 165 pM and the EC50 improvement compared to ΔB7-H6 wt is 5 fold.
In the same order, the values of B4 are 240 pM and 4 fold.
In the same order, the values of B5 are 61.1 pM and 14 fold.
In the same order, the values of B6 are 427 pM and 2 fold.
On to B7, for which the EC50 (pM), A431 lysis with PBMC stood at 64 pM and the EC50 improvement compared to ΔB7-H6 wt was 14 fold.
On the same counts, the results for B8 are 65.8 pM and 13 fold.
In the same order, the values of B9 are 110 pM and 8 fold.
Consider B10, for which the EC50 (pM), A431 lysis with PBMC worked out at 36.1 pM and the EC50 improvement compared to ΔB7-H6 wt worked out at 24 fold.
B11: the EC50 (pM), A431 lysis with PBMC was 54.7 pM and the EC50 improvement compared to ΔB7-H6 wt stood at 16 fold.
For the molecule B12, the EC50 (pM), A431 lysis with PBMC was 85 pM and the EC50 improvement compared to ΔB7-H6 wt amounted to 10 fold.
Regarding B13, the EC50 (pM), A431 lysis with PBMC was determined as 40.8 pM and the EC50 improvement compared to ΔB7-H6 wt turned out to be 21 fold.
On to B14, for which the EC50 (pM), A431 lysis with PBMC is 45.4 pM and the EC50 improvement compared to ΔB7-H6 wt came to 19 fold.

Another assay concerns the target human NKp30 (human) (UniProt O14931). As to the kind of experiment: BLI, ratio to ΔB7-H6_wt.
As to B1, the KD improvement compared to ΔB7-H6 wt is 16.5 fold, the x-fold KD improvement came to 16.5 fold and the x-fold Koff improvement is 9.6 fold.
With B2, the KD improvement compared to ΔB7-H6 wt came out at 5.1 fold, the x-fold KD improvement came out at 5.1 fold and the x-fold Koff improvement was determined as 3.7 fold.
As for B3, the KD improvement compared to ΔB7-H6 wt was found to be 3.2 fold, the x-fold KD improvement amounted to 3.2 fold and the x-fold Koff improvement came to 1.9 fold.
Regarding B4, the KD improvement compared to ΔB7-H6 wt is 2.8 fold, the x-fold KD improvement came out at 2.8 fold and the x-fold Koff improvement amounted to 1.7 fold.
With B5, the KD improvement compared to ΔB7-H6 wt came out at 10.5 fold, the x-fold KD improvement was found to be 10.5 fold and the x-fold Koff improvement was 5.7 fold.
As to B6, the KD improvement compared to ΔB7-H6 wt was 6.9 fold, the x-fold KD improvement turned out to be 6.9 fold and the x-fold Koff improvement came out at 2.9 fold.
B7: the KD improvement compared to ΔB7-H6 wt was 7.1 fold, the x-fold KD improvement stood at 7.1 fold and the x-fold Koff improvement was 3 fold.
On to B8, for which the KD improvement compared to ΔB7-H6 wt was 10.5 fold, the x-fold KD improvement amounted to 10.5 fold and the x-fold Koff improvement was found to be 3.9 fold.
With B9, the KD improvement compared to ΔB7-H6 wt was determined as 3.9 fold, the x-fold KD improvement amounted to 3.9 fold and the x-fold Koff improvement is 1.5 fold.
B10: the KD improvement compared to ΔB7-H6 wt came to 22.8 fold, the x-fold KD improvement was 22.8 fold and the x-fold Koff improvement worked out at 8 fold.
For B11, the KD improvement compared to ΔB7-H6 wt is 18.2 fold, the x-fold KD improvement amounted to 18.2 fold and the x-fold Koff improvement is 9.3 fold.
On to B12, for which the KD improvement compared to ΔB7-H6 wt was found to be 2.8 fold, the x-fold KD improvement was 2.8 fold and the x-fold Koff improvement turned out to be 1.7 fold.
As for B13, the KD improvement compared to ΔB7-H6 wt was found to be 12.4 fold, the x-fold KD improvement was determined as 12.4 fold and the x-fold Koff improvement came to 6.9 fold.
B14: the KD improvement compared to ΔB7-H6 wt is 3.7 fold, the x-fold KD improvement amounted to 3.7 fold and the x-fold Koff improvement amounted to 3.2 fold.

Another assay shares this target. Put plainly: BLI, immunoligand on anti-hFc tip.
The molecule B1 gave a Kd of 0.0248 µM, a koff of 0.0175 s⁻¹ and a kon of 705000 M⁻¹ s⁻¹.
In the same order, the values of B2 are 0.0807 µM, 0.0455 s⁻¹ and 564000 M⁻¹ s⁻¹.
The molecule B3 showed a Kd of 0.129 µM, a koff of 0.0865 s⁻¹ and an association rate constant (kon) of 671000 M⁻¹ s⁻¹.
On the same counts, the results for B4 are 0.146 µM, 0.0981 s⁻¹ and 673000 M⁻¹ s⁻¹.
In the same order, the values of B5 are 0.0391 µM, 0.0295 s⁻¹ and 754000 M⁻¹ s⁻¹.
B6 came in with a dissociation constant (Kd) of 0.0591 µM, a koff of 0.0573 s⁻¹ and an on-rate (kon) of 969000 M⁻¹ s⁻¹.
In the same order, the values of B7 are 0.0578 µM, 0.056 s⁻¹ and 970000 M⁻¹ s⁻¹.
In the same order, the values of B8 are 0.0391 µM, 0.0432 s⁻¹ and 1.11e+06 M⁻¹ s⁻¹.
With B9, the equilibrium dissociation constant (Kd) is 0.104 µM, the koff was found to be 0.109 s⁻¹ and the on-rate (kon) was found to be 1.05e+06 M⁻¹ s⁻¹.
In the case of B10, the Kd was 0.0179 µM, the koff is 0.0211 s⁻¹ and the association rate constant (kon) came to 1.18e+06 M⁻¹ s⁻¹.
Turning to B11, the Kd was found to be 0.0225 µM, the koff is 0.018 s⁻¹ and the kon was 799000 M⁻¹ s⁻¹.
The molecule B12 returned a Kd of 0.145 µM, an off-rate (koff) of 0.0998 s⁻¹ and a kon of 689000 M⁻¹ s⁻¹.
B13 yielded a Kd of 0.0331 µM, a dissociation rate constant (koff) of 0.0244 s⁻¹ and a kon of 737000 M⁻¹ s⁻¹.
For the molecule B14, the Kd was 0.11 µM, the dissociation rate constant (koff) was found to be 0.0525 s⁻¹ and the kon was determined as 478000 M⁻¹ s⁻¹.

The term Kd denotes a measure of binding affinity in units of concentration. What is called koff is the rate constant with which the complex falls apart. Low readings indicate slow dissociation, high ones fast dissociation. As usually defined, the kon is a measure of how fast the partners come together. A lower kon goes with slower complex formation.
